Laboratory results from US20130273567A1, “Screening Method for Candidate Agonist Compounds for Adiponectin Receptor I” (priority 2010, published 2013).

Experiments:
[1] = Plasma adiponectin level after intravenous injection of adiponectin; type: in vivo; conditions: 30 μg per 10 g body weight intravenously through inferior vena cava catheter, mice
Description: (§1) Mouse full-length adiponectin was generated as described in the following documents (Nature Med. 8, 1288-1295 (2002); Nature Med. 7, 941-946 (2001); Nature 423, 762-769 (2003)).

C2C12 myocytes [2] = assay: NAD+/NADH measurements in C2C12 myocytes; type: cell-based, mouse; conditions: C2C12 myocytes treated with adiponectin
Description: NAD^+ and NADH nucleotides were directly measured by the method described in the following document (Nature, 458, 1056-1060 (2009)). Whole skeletal muscles or two 10 cm dishes of C2C12 myocytes were homogenized in 200 μl of an acid extraction buffer to measure the NAD^+ concentration, or 200 μl of alkali extraction to obtain the NADH concentration. Next, homogenates were neutralized and the concentration of nucleotides was measured fluorimetrically after an enzymatic cycling reaction using 5 μl of a sample. Values for both nucleotides were detected within the linear range. NAD^+/NADH ratios were calculated by comparing the ratios obtained from each animal or from parallel cell dishes in each experiment.

AdipoR1 [3] = target: T1, AdipoR1 (Mus musculus, UniProt Q91VH1); assay: Calcium imaging in C2C12 myocytes (fura-2); type: cell-based; design: endogenous in cells; host or cells: mouse C2C12 myocytes (differentiated from myoblasts)
T1 sequence (Q91VH1 1-375): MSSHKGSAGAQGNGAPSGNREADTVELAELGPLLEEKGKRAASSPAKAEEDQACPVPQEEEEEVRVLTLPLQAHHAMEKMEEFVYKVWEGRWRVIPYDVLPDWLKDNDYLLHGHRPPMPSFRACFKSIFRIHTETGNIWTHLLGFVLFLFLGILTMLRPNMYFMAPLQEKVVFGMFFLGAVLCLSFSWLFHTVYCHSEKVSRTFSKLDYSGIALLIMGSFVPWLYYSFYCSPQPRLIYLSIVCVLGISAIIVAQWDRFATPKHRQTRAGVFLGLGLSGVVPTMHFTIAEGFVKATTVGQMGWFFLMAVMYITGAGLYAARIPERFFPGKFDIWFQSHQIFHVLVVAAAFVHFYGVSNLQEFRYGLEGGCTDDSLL
Description: C212 myocytes cultured on glass base dishes (IWAKI) were treated with 2.5 μM fura-2/AM for 30 min. Fluorescence was measured with an Aquacosmos Calcium Imaging system (Hamamatsu Photonics). Ligands were delivered through the superfusing Ringer's solution (140 mM NaCl, 5.6 mM KCl, 5 mM HEPES, 2.0 mM sodium pyruvate, 1.25 mM KH2PO4, 2.0 mM CaCl2, 2.0 mM MgCl2, 9.4 mM D-glucose (pH 7.4)). For the calcium chelating experiment, EGTA solution (140 mM NaCl, 5.6 mM KCl, 5 mM HEPES, 2.0 mM sodium pyruvate, 1.25 mM KH2PO4, 2.0 mM MgCl2, 5.0 mM EGTA-2Na, 9.4 mM D-glucose (pH 7.4) was used for the bath solution. Fura-2 fluorescence ratios were calibrated to calcium ion signals.

PGC-1α = PGC-1α acetylation (acetyl-lysine on immunoprecipitates) in C2C12 myocytes; type: cell-based, mouse; conditions: treatment for 2 hr
Description: (§2) The mouse C2C12 myoblasts were grown in 90% Dulbecco's modified high glucose Eagle's medium containing 10% (v/v) fetal bovine serum. When the cells reached 80% confluent, the myoblasts were induced to differentiate into myocytes by replacing the medium with a low serum differentiation medium (98% Dulbecco's modified high glucose Eagle's medium, 2.5% (v/v) horse serum). The medium was changed daily. The C2C12 cells were transfected by using Pofectamine 2000 (Invitrogen) and following the manufacturer's instructions.

CaMKI = CaMKI phosphorylation in skeletal muscle in vivo; design: species or system mice; conditions: adiponectin 30 μg per 10 g body weight, 5 min; via AdipoR1
Description: as §1

C2C12 myocytes [4] = assay: Mitochondrial content assay in C2C12 myocytes (mtDNA copy number, MitoTracker Green); type: cell-based, mouse
Description: Mice used were from 8 to 10 week old at the time of the experiment. […] Induction of myogenic differentiation using C2C12 cells was carried out according to the method described in the following document (Nature Med. 8, 1288-1295 (2002)). By day 5, the cells had differentiated into multinucleated contracting myocytes. C2C12 myocytes were used after myogenic differentiation in all experiments.
as §2
Mitochondrial content assays were carried out as described in the following document (Cell Metab. 4, 75-87 (2006)), with slight modifications. Quantification of the mitochondrial content was conducted by using mtDNA and MitoTracker Green probe (Molecular Probes) according to the method as described in the following document (Obes. Res. 13, 574-581 (2005)). MitoTracker Green probe preferentially accumulates in mitochondria regardless of the mitochondrial membrane potential and provides an accurate assessment of mitochondrial mass. Cells were washed with PBS and after addition of 100 nM MitoTracker Green FM (Molecular Probes), incubated at 37° C. for 30 min. Cells were harvested by using trypsin/EDTA and resuspended in PBS. Fluorescence intensity was detected with excitation and emission wavelengths of 490 and 516 nm, respectively, and the values thus measured were corrected for total protein (mg/ml).

AdipoR1 [5] = target: T1, AdipoR1; assay: Calcium imaging in skeletal muscle (soleus, fura-2); type: cell-based, mice; design: from tissue; host or cells: soleus muscle of control (Adipor1 lox/lox) and muscle-R1KO mice; conditions: adiponectin 30 μg/ml
Description: From 8-10 weeks-old mice, soleus muscles were dissected. Preparations were treated with 5 μM fura-2/AM in the presence of 0.1% Chremophore EL (Sigma) for 15 min. Fluorescence images were acquired using an inverted fluorescence microscopy (IX71, Olympus) equipped with a cooled charge-coupled device (CCD) camera (iXon, Andor) and a dry objective lens (10×, NA=0.3, Olympus) through a filter set consisting of a 327-353 nm and 369-391 nm excitation filter, a 409 nm dichroic mirror, and a 515-560 nm fluorescent filter. Ligands were supplied using the superfusing Ringer's solution (150 mM NaCl, 4 mM KCl, 2.0 mM CaCl2, 1.0 mM MgCl2, 30 mM D-glucose, 5 mM HEPES (pH 7.4)).

AMPK = AMPK phosphorylation in C2C12 myocytes (immunoblotting); type: cell-based, mouse; conditions: C2C12 myocytes, adiponectin 30 μg/ml
Description: as §2

CaMKI, HDAC5 = assay: Phosphorylation of CaMKI and HDAC5 in C2C12 myocytes (immunoblotting); type: cell-based, mouse; conditions: adiponectin 30 μg/ml, 0-20 min
Description: as §2

[6] = C2C12 myocytes incubated with 30 μg/ml adiponectin

dose dependence of calcium response (AdipoR1 [3]): dose-dependent responses
intracellular calcium ion concentration (fura-2-based fluorescent imaging) (AdipoR1 [3]; adiponectin 30 μg/ml, 1 min): increased
intracellular calcium ion concentration in soleus muscle (fura-2) (AdipoR1 [5]; control mice): increased
calcium responses of soleus muscle to adiponectin (AdipoR1 [5]; muscle-R1KO mice): almost completely disappeared
B1: adiponectin: recombinant murine full-length adiponectin, internal ligand of adiponectin receptor 1 (protein, UniProt Q60994 1-247, looked up)
chain: MLLLQALLFLLILPSHAEDDVTTTEELAPALVPPPKGTCAGWMAGIPGHPGHNGTPGRDGRDGTPGEKGEKGDAGLLGPKGETGDVGMTGAEGPRGFPGTPGRKGEPGEAAYVYRSAFSVGLETRVTVPNVPIRFTKIFYNQQNHYDGSTGKFYCNIPGLYYFSYHITVYMKDVKVSLFKKDKAVLFTYDQYQEKNVDQASGSVLLHLEVGDQVWLQVYGDGDHNGLYADNVNDSTFTGFLLYHDTN
modifications: full-length
plasma adiponectin levels [1]: approximately 30 μg/ml
NAD+ and NADH contents (C2C12 myocytes [2]): increased
NAD+/NADH ratio (C2C12 myocytes [2]): increased
PGC-1α acetylation (PGC-1α): decreased
phosphorylation of CaMKI in skeletal muscle in vivo (CaMKI): significantly increased
mitochondrial biogenesis (C2C12 myocytes [4]; C2C12 myocytes expressing PGC-1α-R13 mutant): failed to further induce
amount of mitochondria as assessed by MitoTracker green (C2C12 myocytes [4]; [6]): increased
mitochondrial DNA content (C2C12 myocytes [4]; [6]): increased
phosphorylation of AMPK α-subunits at Thr 172 (AMPK): increased
CaMKI phosphorylation (CaMKI, HDAC5): rapid, robust, and transient increase
HDAC5 phosphorylation (CaMKI, HDAC5): increased
